Target: Venus-tagged CaV1.1 CI (Ven-CaV1.1 CI) (UniProt P07293)
Assay: FRET or BRET

Cer-tagged stac3 variant K[288]* (domain or fragment), sequence (Q96MF2 whole entry, change not shown, the tested form may be a part): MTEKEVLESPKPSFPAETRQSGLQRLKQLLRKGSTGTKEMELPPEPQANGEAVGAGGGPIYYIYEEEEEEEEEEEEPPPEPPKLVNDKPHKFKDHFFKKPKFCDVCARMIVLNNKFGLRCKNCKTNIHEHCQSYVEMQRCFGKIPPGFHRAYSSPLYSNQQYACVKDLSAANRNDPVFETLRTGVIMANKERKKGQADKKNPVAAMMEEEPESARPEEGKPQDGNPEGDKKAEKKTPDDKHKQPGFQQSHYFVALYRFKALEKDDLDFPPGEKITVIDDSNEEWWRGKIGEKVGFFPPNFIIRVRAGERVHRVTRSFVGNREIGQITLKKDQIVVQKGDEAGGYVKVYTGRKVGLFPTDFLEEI
Cer-tagged stac3 variant W[284]S (Native American myopathy) (natural protein), sequence (Q96MF2 whole entry, change not shown): as the sequence (Q96MF2 whole entry, change not shown, the tested form may be a part) above
Cer-tagged stac3 variant L[111]Δ (natural protein), sequence (Q96MF2 whole entry, stated change not applied): as the sequence (Q96MF2 whole entry, change not shown, the tested form may be a part) above

Row | fold weakening of affinity against WT stac3 | Substance | also measured
1 | 10 fold | Cer-tagged stac3 variant W[284]S (Native American myopathy) (natural protein) | –
2 | 10 fold | Cer-tagged stac3 variant L[111]Δ (natural protein) | –
3 | – | Cer-tagged stac3 (wild type) (natural protein) | Kd: 400 nM
4 | – | Cer-tagged stac3 variant K[288]* (domain or fragment) | fold reduction of binding against WT stac3: 2 fold
